Measurements reported in EP4714469A1, “PHARMACEUTICAL COMPOSITION COMPRISING ANTIBODY-DRUG CONJUGATE” (CSPC Megalith Biopharmaceutical Co., Ltd., priority 2023, dated 2024).
Marks after values point to notes of the source that are not given here. Values belong to the molecule of their own block, whether it stands above or below them. Starred links: 1 amine or outer side, 2 acyl side, 3 side chain; linkers in the order of their positions; H or OH if unused. Non-standard residues stand in square brackets, D forms with d. Residues, ends and D or L forms follow the SMILES beside them. *: point of attachment. Exatecan = CC[C@@]1(O)C(=O)OCc2c1cc1n(c2=O)Cc2c-1nc1cc(F)c(C)c3c1c2[C@@H](N*)CC3; Hexanoyl(6-maleimido) = O=C1C=CC(=O)N1CCCCCC(=O)*; X1 = C[C@@H](OCN[*:1])C(=O)[*:2]

Key:
[1] = Assay 8: stability of linker-drug compounds; assay type: physicochemical; details: high temperature, high humidity, illumination or 0.5% BSA-PBS; compared with Deruxtecan
Experimental: Different linker-drug compounds such as Deruxtecan and JSSW-001 were studied under high temperature (40°C, 60°C), high humidity (25°C/75% RH and 25°C/92.5% RH), illumination (illuminance 4500Lux, near-UV energy 90µw/cm^2), or 0.5% BSA-PBS conditions. Samples were collected at different times after exposure to these conditions, and the concentration changes of the linker-drug compounds in the samples were detected using the LC-MS/MS method.

[2] = test system: human colorectal cancer DiFi xenograft tumor; assay: Assay 16: DiFi xenograft efficacy of patritumab-ADC; assay type: in vivo, NU/NU mice; details: 10 mg/kg i.v./qw*3w (as in Table 29)
From the text: (§1) NU/NU mice, 5-6 weeks old, 18 mice
(§2) The assay was terminated on day 28 after the administration.

[3] = test system: human colon cancer SW620 xenograft tumor; assay: Assay 15: SW620 xenograft efficacy; assay type: in vivo, NU/NU mice; details: 7 mg/kg i.v./single administration
From the text: as §1
The assay was terminated on day 26 after the administration.

[4] = test system: human lung cancer PC9-GR (gefitinib-resistant cell) xenograft tumor; assay: Assay 3: PC9-GR xenograft efficacy of patritumab-ADC; assay type: in vivo, NU/NU mice; details: 3 mg/kg i.v./qw*4w
From the text: NU/NU mice, 5-6 weeks old, 16 mice
as §2

EGFR on MDA-MB-468 cells [5] = target: T1, EGFR on MDA-MB-468 cells (human, UniProt P00533 25-1210); assay: flow cytometry (FACS) on MDA-MB-468 cells, antibody diluted in PBS pH 7.4, FITC anti-human Fc secondary
T1 construct: whole, on cells; also called target antigen; HER1

EGFR on MDA-MB-468 cells [6] = target: T1, EGFR on MDA-MB-468 cells; assay: flow cytometry (FACS) on MDA-MB-468 cells, antibody diluted in PBS pH 6.0, FITC anti-human Fc secondary
EGFR on MDA-MB-468 cells [7] = target: T1, EGFR on MDA-MB-468 cells; assay: flow cytometry (FACS) on MDA-MB-468 cells, pH 6.0; end of the range tied to SWY2111 by Table 1
EGFR on MDA-MB-468 cells [8] = target: T1, EGFR on MDA-MB-468 cells; assay: flow cytometry (FACS) on MDA-MB-468 cells, pH 7.4; end of the range tied to SWY2111 by Table 1
EGFR on MDA-MB-468 cells [9] = target: T1, EGFR on MDA-MB-468 cells; assay: flow cytometry (FACS) on MDA-MB-468 cells, pH 7.4; end of the range tied to SWY2113 by Table 1
EGFR on MDA-MB-468 cells [10] = target: T1, EGFR on MDA-MB-468 cells; assay: flow cytometry (FACS) on MDA-MB-468 cells, pH 6.0
EGFR on MDA-MB-468 cells [11] = target: T1, EGFR on MDA-MB-468 cells; assay: flow cytometry (FACS) on MDA-MB-468 cells, pH 6.0; end of the range tied to SWY2112 by Table 1

Molecule: CC[C@@]1(O)C(=O)OCc2c1cc1n(c2=O)Cc2c-1nc1cc(F)c(C)c3c1c2[C@@H](NC(=O)[C@@H](C)OCNC(=O)CNC(=O)[C@H](Cc1ccccc1)NC(=O)CNC(=O)CNC(=O)CCCCCN1C(=O)C=CC1=O)CC3 [JSSW-001, N-((2R,10S)-10-benzyl-1-(((1S,9S)-9-ethyl-5-fluoro-9-hydroxy-4-methyl-10,13-dioxo-2,3,9,10,13,15-hexahydro-1H,12H-benzo[de]pyrano[3',4':6,7]indolizino[1,2-b]quinolin-1-yl)amino)-2-methyl-1,6,9,12,15-pentaoxo-3-oxa-5,8,11,14-tetraazahexadecan-16-yl)-6-(2,5-dioxo-2,5-dihydro-1H-pyrrol-1-yl)hexanamide] ({Hexanoyl(6-maleimido)}-GGFG[X1]-Exatecan)
stability of linker-drug compound [1]: better stability

Molecule: patritumab-DXD ADC (DAR=7.3): patritumab conjugated with commercially available Deruxtecan [reference compound]
TGI (%) Day 28 [2]: 54.0% | Tumor Volume ([2]; 28 days): 512.5 ± 470.8* mm^3 | TGI (%) Day 21 [3]: 73.2% | Tumor Volume ([3]; 21 days): 461.3±278.1*** mm^3 | TGI (%) Day 28 [4]: 59.5% | Tumor Volume ([4]; 28 days): 373.4 ± 102.8** mm^3

EC50 (EGFR on MDA-MB-468 cells [5]): 1.45 nM | EC50 (EGFR on MDA-MB-468 cells [6]): 0.6 nM | fold change of affinity compared to SWY2110 at pH=6.0 (EGFR on MDA-MB-468 cells [7]): 1.2 to 1.3 times | fold decrease of affinity compared to SWY2110 at pH=7.4 (EGFR on MDA-MB-468 cells [8]): 3 times
B1: SWY2111 (antibody, human IgG1, kappa, V domains shown)
VH: QVQLQESGPGLVKPSETLSLTCTVSGFSLSDYDVHWVRQAPGKGLEWLGVIWSGGNTDYNTPFTSRLTISVDTSKNQFSLKLSSVTAADTAVYYCARALDDYDYEFAYWGQGTLVTVSS
VL: EIVLTQSPDFQSVTPKEKVTITCRASQSIGTNIHWYQQKPDQSPKLLIKYASESISGIPSRFSGSGSGTDFTLTINSLEAEDAATYYCQQNNEWPTSFGQGTKLEIKR
notes: also called EGFR antibody SWY2111

EC50 (EGFR on MDA-MB-468 cells [5]): 4.76 nM | EC50 (EGFR on MDA-MB-468 cells [6]): 3.39 nM | fold decrease of affinity compared to SWY2110 at pH=7.4 (EGFR on MDA-MB-468 cells [9]): 3 to 9.7 times | fold decrease of affinity compared to SWY2110 at pH=6.0 (EGFR on MDA-MB-468 cells [10]): 6.6 times
B2: SWY2113 (antibody, human IgG1, kappa, V domains shown)
VH: QVQLQESGPGLVKPSETLSLTCTVSGFSLSHYDVHWVRQAPGKGLEWLGVIWSGGNTDYNTPFTSRLTISVDTSKNQFSLKLSSVTAADTAVYYCARALDDYDYEFAYWGQGTLVTVSS
VL: EIVLTQSPDFQSVTPKEKVTITCRASQSIGTNIHWYQQKPDQSPKLLIKYASESISGIPSRFSGSGSGTDFTLTINSLEAEDAATYYCQQNNEWPTSFGQGTKLEIKR
notes: also called EGFR antibody SWY2113

EC50 (EGFR on MDA-MB-468 cells [5]): 2.35 nM | EC50 (EGFR on MDA-MB-468 cells [6]): 0.67 nM | fold change of affinity compared to SWY2110 at pH=6.0 (EGFR on MDA-MB-468 cells [11]): 1.2 to 1.3 times
B3: SWY2112 (antibody, human IgG1, kappa, V domains shown)
VH: QVQLQESGPGLVKPSETLSLTCTVSGFSLSEYDVHWVRQAPGKGLEWLGVIWSGGNTDYNTPFTSRLTISVDTSKNQFSLKLSSVTAADTAVYYCARALDDYDYEFAYWGQGTLVTVSS
VL: EIVLTQSPDFQSVTPKEKVTITCRASQSIGTNIHWYQQKPDQSPKLLIKYASESISGIPSRFSGSGSGTDFTLTINSLEAEDAATYYCQQNNEWPTSFGQGTKLEIKR
notes: also called EGFR antibody SWY2112
